For one molecule, Kd results are on record in paper PMC8876058 (Viruses, 2022).

In general, Kd refers to the constant that tells how readily two partners part at equilibrium. Read a low Kd as tighter binding.

Test [1] concerns the target T1, CyPet-Ubc9 (SUMOylation E2 conjugating enzyme Ubc9 fused to the FRET donor CyPet) (human, UniProt P63279 1-158).
T1 construct: also called SUMO E2
Kind of test: FRET or BRET. The settings on record: both partners purified. In general terms: Bioluminescence resonance energy transfer reports proximity on the nanometre scale.

For test [2], the target named is T2, CyPet-PIAS1 (SUMOylation E3 ligase PIAS1 fused to the FRET donor CyPet) (human, UniProt O75925 1-651).
T2 construct: also called SUMO E3
T2 sequence (O75925 whole entry, the tested form may be a part): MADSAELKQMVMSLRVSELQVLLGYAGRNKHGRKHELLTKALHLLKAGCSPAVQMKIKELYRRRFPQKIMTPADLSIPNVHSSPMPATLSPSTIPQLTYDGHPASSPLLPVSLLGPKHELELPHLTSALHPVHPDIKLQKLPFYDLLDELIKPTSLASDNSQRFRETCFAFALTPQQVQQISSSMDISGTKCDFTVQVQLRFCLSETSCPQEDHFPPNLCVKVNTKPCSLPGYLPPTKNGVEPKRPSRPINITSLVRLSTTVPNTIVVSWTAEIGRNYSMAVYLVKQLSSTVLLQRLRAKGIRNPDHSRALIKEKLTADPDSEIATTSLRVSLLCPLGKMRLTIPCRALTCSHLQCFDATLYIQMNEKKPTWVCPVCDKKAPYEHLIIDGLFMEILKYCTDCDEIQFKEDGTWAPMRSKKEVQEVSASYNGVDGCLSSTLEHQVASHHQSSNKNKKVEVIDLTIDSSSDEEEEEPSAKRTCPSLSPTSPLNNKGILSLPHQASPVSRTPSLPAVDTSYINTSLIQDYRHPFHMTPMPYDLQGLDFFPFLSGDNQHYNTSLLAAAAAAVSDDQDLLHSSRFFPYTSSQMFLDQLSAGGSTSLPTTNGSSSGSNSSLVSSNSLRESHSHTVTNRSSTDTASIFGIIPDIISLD
As to the kind of experiment: FRET or BRET. Particulars: both partners purified.

T1 sequence (P63279 whole entry, the tested form may be a part): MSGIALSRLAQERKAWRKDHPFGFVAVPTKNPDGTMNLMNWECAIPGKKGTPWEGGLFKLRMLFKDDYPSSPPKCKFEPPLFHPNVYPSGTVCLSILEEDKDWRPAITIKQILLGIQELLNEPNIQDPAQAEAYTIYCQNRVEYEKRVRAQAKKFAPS

B1: YPet-Linker3-M1 (M1 protein of influenza B virus fused to the FRET acceptor YPet) (natural protein)
chain: MSLFGDTIAYLLSLTEDGEGKAELAEKLHCWFGGKEFDLDSALEWIKNKRCLTDIQKALIGASICFLKPKDQERKRRFITEPLSGMGTTATKKKGLILAERKMRRCVSFHEAFEIAEGHESSALLYCLMVMYLNPGNYSMQVKLGTLCALCEKQASHSHRAHSRAARSSVPGVRREMQMVSAMNTAKTMNGMGKGEDVQKLAEELQSNIGVLRSLGASQKNGEGIAKDVMEVLKQSSMGNSALVKKYL
Turning to B1, the equilibrium dissociation constant (Kd) in test [1] was found to be 200 nM; in test [2], 220 nM.
